Common to all, as to assay: fluorescence polarisation; fluorescein-labelled pol β NLS peptide against the concentration of the Impα construct; apparent dissociation constants; as in ref. 56
Holding throughout (conditions): both partners purified
For orientation: Polarisation of emitted light reports the rotation of a fluorescent probe.

Assay [1] addresses T1, murine Importin α1 with the Importin β binding domain deleted (mImpα1ΔIBB) (mouse, UniProt P52293 70-529).
Assay [2] addresses T2, full-length murine Importin α1 (mImpα1) (mouse, UniProt P52293 1-529).
For assay [3], the target named is T1, murine Importin α1 with the Importin β …. This is another data set of the same source.
The target in assay [4] is T2, full-length murine Importin α1 (mImpα1). The source holds these as a separate data set.
Assay [5] has as its target human Importin α5, residues 66–512 (hImpα5ΔIBB) (human, UniProt P52294 66-512).

Ends that are not written are not given here. * marks the point of attachment. FITC = O=C1OC2(c3ccc(O)cc3Oc3cc(O)ccc32)c2ccc(NC(=S)*)cc21

human Importin α5, residues 66–512 (hImpα5ΔIBB), sequence (P52294 66-512, stated change not applied): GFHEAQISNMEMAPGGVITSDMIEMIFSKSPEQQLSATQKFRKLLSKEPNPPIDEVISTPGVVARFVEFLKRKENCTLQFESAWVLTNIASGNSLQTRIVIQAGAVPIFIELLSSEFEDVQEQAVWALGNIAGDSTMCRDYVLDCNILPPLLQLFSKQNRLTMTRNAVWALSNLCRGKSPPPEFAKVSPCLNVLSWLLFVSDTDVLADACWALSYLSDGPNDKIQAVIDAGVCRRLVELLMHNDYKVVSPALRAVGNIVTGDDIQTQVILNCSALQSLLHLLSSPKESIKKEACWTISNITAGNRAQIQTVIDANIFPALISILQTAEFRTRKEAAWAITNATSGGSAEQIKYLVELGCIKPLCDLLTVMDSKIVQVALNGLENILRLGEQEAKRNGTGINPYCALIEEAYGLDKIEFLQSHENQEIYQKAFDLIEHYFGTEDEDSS

In the case of SKRKAPQETLNGGK(FITC) [fluorescein-labeled pol β NLS peptide SKRKAPQETLNGG-Lys(FITC)], the Kd in assay [1] was 2000 nM; in assay [2], 54.3 µM; in assay [3] it was 3.6 ± 0.4 µM; in assay [4], 61.8 ± 1.7 µM; in assay [5], 720 ± 30 nM.

(Values after article PMC5389473 (Nucleic Acids Research, 2016).)
